In patent publication US20200362034A1 one finds EC 50 (nM), cAMP Hunter bioassay on CHO-K1 cells overexpressing human GLP1R data, which are given here for one substance.

The assay deals with human glucagon ligand peptide-1 receptor (GLP1R) (human) (UniProt P43220). The assay can be described thus: cell-based or functional assay.
Chain of human glucagon ligand peptide-1 receptor (GLP1R) (human) (P43220 24-463): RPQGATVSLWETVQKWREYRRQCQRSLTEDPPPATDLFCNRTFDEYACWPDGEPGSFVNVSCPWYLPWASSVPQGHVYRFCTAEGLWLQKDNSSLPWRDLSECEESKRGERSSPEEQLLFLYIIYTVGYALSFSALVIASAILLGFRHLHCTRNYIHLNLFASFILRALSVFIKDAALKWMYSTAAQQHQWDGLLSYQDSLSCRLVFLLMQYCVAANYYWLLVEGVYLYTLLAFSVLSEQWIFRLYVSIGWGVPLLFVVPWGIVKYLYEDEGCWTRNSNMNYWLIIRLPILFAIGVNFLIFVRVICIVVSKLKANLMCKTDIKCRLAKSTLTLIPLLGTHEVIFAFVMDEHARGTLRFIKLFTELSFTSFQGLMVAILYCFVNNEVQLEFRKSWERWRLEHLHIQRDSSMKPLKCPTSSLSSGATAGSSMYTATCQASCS

Take Extendin-4 (peptide): the EC 50 (nM), cAMP Hunter bioassay on CHO-K1 cells overexpressing human GLP1R is 0.46 nM.
